The text below walks through data of IntAct's records for PubMed 21240272.

The chains are these.
B1: G protein pathway suppressor 2 (Homo sapiens), Q13227 (parent)
chain: MPALLERPKLSNAMARALHRHIMMERERKRQEEEEVDKMMEQKMKEEQERRKKKEMEERMSLEETKEQILKLEEKLLALQEEKHQLFLQLKKVLHEEEKRRRKEQSDLTTLTSAAYQQSLTVHTGTHLLSMQGSPGGHNRPGTLMAADRAKQMFGPQVLTTRHYVGSAAAFAGTPEHGQFQGSPGGAYGTAQPPPHYGPTQPAYSPSQQLRAPSAFPAVQYLSQPQPQPYAVHGHFQPTQTGFLQPGGALSLQKQMEHANQQTGFSDSSSLRPMHPQALHPAPGLLASPQLPVQMQPAGKSGFAATSQPGPRLPFIQHSQNPRFYHK
partner: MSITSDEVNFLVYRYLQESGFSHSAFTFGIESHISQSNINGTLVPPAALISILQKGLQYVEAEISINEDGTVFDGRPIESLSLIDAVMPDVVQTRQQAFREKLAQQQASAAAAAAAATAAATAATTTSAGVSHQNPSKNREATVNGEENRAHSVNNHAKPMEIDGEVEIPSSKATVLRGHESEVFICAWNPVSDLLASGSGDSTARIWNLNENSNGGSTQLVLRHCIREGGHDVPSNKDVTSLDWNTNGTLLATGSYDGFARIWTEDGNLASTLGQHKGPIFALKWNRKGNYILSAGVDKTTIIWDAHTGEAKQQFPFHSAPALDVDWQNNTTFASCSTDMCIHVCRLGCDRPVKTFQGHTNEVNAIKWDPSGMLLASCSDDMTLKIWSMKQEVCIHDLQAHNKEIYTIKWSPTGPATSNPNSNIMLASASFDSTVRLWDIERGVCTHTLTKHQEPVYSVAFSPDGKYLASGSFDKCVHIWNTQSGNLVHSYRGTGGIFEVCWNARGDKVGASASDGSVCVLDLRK
B2: F-box-like/WD repeat-containing protein TBL1X (Homo sapiens), O60907-2 (parent)
chain: B1 partner

Variants of B1 are the subject of one assay. As to conditions: with TBL1X.
Take H19A;R20E;I22A: the “effect of a mutation on the interaction” value was “disrupting interaction”.

In the next assay the parent is B2. As to conditions: with ncor2_human NCOR2, Q9Y618.
ncor2_human NCOR2, Q9Y618, sequence (Q9Y618 whole entry): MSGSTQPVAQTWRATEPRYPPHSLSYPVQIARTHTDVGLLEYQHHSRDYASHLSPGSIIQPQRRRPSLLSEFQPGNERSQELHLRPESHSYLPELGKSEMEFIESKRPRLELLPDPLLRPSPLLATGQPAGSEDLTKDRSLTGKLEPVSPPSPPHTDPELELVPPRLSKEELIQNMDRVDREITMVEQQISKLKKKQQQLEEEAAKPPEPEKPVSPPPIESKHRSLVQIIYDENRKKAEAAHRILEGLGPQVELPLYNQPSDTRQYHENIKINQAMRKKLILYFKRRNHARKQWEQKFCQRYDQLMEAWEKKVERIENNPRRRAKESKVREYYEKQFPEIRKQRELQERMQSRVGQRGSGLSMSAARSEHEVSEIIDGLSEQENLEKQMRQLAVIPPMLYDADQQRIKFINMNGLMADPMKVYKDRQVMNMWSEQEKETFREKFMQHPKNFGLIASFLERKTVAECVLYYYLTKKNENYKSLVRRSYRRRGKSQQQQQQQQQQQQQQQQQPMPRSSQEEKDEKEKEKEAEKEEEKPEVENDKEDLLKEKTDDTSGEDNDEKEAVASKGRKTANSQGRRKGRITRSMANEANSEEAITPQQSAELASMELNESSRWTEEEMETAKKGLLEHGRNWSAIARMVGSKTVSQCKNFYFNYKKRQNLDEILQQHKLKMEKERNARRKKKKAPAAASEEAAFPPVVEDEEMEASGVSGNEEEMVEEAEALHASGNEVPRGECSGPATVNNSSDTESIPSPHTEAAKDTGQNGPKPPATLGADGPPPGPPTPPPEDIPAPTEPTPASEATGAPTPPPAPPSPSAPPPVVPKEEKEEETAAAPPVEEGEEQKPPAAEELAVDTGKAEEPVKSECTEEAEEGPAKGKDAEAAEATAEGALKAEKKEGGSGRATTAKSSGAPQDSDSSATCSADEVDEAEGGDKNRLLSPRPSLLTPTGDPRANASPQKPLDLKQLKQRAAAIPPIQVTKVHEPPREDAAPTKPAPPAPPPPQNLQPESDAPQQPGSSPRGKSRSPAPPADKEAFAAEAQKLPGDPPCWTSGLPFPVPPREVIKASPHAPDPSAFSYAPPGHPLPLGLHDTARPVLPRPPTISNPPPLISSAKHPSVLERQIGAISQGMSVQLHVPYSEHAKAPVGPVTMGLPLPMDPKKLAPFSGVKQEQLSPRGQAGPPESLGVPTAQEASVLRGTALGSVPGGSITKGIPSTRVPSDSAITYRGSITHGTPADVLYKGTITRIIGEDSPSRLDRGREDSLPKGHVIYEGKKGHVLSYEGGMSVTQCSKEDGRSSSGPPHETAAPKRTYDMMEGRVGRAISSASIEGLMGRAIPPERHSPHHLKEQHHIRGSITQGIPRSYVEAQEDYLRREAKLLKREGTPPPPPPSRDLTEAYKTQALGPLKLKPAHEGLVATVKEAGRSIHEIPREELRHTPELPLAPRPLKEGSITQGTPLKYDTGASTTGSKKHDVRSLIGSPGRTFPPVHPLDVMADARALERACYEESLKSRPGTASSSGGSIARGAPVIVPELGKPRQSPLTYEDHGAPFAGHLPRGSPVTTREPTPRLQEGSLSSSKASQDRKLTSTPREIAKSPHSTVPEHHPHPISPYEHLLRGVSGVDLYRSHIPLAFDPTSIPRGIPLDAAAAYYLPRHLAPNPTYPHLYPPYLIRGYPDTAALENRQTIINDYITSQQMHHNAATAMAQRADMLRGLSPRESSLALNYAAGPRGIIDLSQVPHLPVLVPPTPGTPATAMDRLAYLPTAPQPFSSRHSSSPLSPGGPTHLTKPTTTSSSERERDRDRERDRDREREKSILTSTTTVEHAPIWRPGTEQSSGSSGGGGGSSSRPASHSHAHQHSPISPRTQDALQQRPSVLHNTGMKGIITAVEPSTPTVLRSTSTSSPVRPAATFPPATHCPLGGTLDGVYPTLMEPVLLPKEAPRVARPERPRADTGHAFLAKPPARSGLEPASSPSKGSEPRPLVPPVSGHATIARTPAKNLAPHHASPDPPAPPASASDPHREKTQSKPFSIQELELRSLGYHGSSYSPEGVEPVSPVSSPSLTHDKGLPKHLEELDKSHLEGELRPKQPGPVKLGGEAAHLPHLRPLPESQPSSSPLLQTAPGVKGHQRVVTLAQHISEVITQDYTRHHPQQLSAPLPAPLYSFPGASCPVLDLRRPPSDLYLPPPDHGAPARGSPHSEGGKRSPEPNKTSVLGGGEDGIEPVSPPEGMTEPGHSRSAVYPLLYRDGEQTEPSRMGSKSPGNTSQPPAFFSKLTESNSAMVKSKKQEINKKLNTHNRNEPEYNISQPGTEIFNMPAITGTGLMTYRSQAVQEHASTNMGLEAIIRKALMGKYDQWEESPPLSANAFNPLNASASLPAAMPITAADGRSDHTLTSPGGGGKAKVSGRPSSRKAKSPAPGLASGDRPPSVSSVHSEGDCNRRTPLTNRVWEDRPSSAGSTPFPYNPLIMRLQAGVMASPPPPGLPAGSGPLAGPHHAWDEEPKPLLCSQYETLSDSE
In the case of I39A, the “effect of a mutation on the interaction” value was “decreasing interaction”.

Turning to V60N, the “effect of a mutation on the interaction” value is “disrupting interaction”.

Take L57A: the “effect of a mutation on the interaction” value is “decreasing interaction strength”.

L57Q: the “effect of a mutation on the interaction” value was “decreasing interaction strength”.

P45G: the “effect of a mutation on the interaction” value is “decreasing interaction”.

Variants of B2 are the subject of a further assay. As to conditions: with gps2_human GPS2, Q13227.
With V60N, the “effect of a mutation on the interaction” value is recorded as “disrupting interaction”.

Regarding L57A, the “effect of a mutation on the interaction” value was “decreasing interaction strength”.

For the variant L57Q, the “effect of a mutation on the interaction” value was “decreasing interaction strength”.
